The chains are these.
B1: QP20 (peptide)
peptide: QTRTVPMPKIHHPPWQNVVP
notes: Found by phage display; also called peptide QP20
B2: SQ20 (peptide)
peptide: SSYHHFKMPELHFGKNTFHQ
notes: Found by phage display; also called peptide SQ20
B3: HD20 (peptide)
peptide: HHHQVYQVRSHWTGMHSGHD
notes: Found by phage display; also called peptide HD20

Sequence of human PD-1 on Jurkat cells (Q15116 25-288): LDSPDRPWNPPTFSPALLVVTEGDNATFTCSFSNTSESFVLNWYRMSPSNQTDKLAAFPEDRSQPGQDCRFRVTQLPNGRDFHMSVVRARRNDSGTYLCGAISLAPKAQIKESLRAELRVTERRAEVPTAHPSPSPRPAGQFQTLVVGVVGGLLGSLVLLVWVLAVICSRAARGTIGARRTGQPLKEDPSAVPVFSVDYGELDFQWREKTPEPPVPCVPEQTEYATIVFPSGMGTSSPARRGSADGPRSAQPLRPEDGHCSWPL

One experiment has as its target human PD-1 on Jurkat cells (human, UniProt Q15116 25-288). Description: cell-based or functional assay.
In the case of B1, the “peak-fold inhibition (luciferase reporter)” value is roughly 1.5 fold.
The same measure, in the same setting: for B2 the value was roughly 1.5 fold; for WNLPASFHNHHIRPHEHEWIQ (also called WQ-21; peptide WQ20) [WQ20], roughly 1.5 fold.
On to B3, for which the “peak-fold inhibition (luciferase reporter)” value was roughly 1.5 fold.

For a further experiment, the target named is T1, soluble recombinant human PD-1 receptor (human, UniProt Q15116 25-167, limits assumed).
T1 construct: also called human PD-1 receptors
T1 sequence (Q15116 25-167 limits assumed): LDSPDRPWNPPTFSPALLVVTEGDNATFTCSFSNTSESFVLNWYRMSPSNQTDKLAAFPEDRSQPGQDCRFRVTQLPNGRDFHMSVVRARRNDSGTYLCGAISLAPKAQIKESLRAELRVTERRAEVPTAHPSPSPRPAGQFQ
Description: clonal phage ELISA, peptide on phage, wells coated with PD-1. (In an ELISA, binding on a coated surface is turned into a signal by an enzyme label.)
For the molecule B1, the coated signal amounted to 0.851.
The same measure, in the same setting: then B2, with 0.284; and WNLPASFHNHHIRPHEHEWIQ (also called WQ-21; peptide WQ20) [WQ20], with 0.275.
The same measure, in the same setting: for B3 the value was 0.281.

These data come from EP3758732B1 (Leidos, Inc., dated 2024).
